Measured values: the domain aggregation screens of Martell et al. (2025)

test: soluble fraction after stress (log2 fold change); higher = more stays soluble; pooled small domains, quantitative proteomics; details: stress: 75 degC
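Note: 20 min heating vs room temperature control held 20 min.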

Going from “HMPEVAHTIDMEAVNKHWDELPEREQRILVMRFYGNLTQTEIGERLGISQMHVSRLLARALSHLKSRLLD” to “HMPEVYPFEVAEDDAGKRLDVFLSEEIEEFTRSFIQKLIAGGLASVNRAPARASYRVKPRDLVELQVPE”, the “soluble fraction (log2)” value rises from -3.89 to -0.598.

Compared with “HMPFNREYWIEQLLKEVGLMGTPYAELDKHEVELDSPTGRASGFKVNAKTYVDQQLLFIENEYNNQPE”, “HMPFREGDEVFVELVEPHMYNEDDAVAKLDGYVVAVRGAAGLVGQKVLVRIERVGRSSAEATLVA” is higher in “soluble fraction (log2)” value: -0.533 for the first, -0.0609 for the second.

Going from “HMPGEIKKIPINSISYQDLKQHPYFDAYLAKQVIKYRETKGRIENIEQFREATRAYQSLIEKVTPYLDFE” to “HMPGGLSAEDVEKMVEKVLTVNGDVVEEIRSGRDPKGKKIKFLAGLVMRDARGQADAAAVSGILERRLKEG”, the “soluble fraction (log2)” value rises from -0.302 to 0.0256.

Going from “HMPGLITLEAAKTTALNHAKLTADQVTFVKQKLDRDDGRQVYEIEFYTSDYKEYDYEIDAVSGLILEVDYD” to “HMPGLPLWAFSTRGSAIHTGASFRDGDGLLFGPESRGLPDWLLEEVGQDRVLRLPMRPGSRSLNLSNAV”, the “soluble fraction (log2)” value rises from -0.866 to -0.577.

First: HMPGPAEMPGWITARAKKLGGQITPEAARALAAEMGSDTEQASREIEKLLTYVDYRRPVEEEDVALLTA
Second: HMPGRKTTFEERLSIIEDLIKHDVNYSWAVDKYHVSYQQVYGWYQKYRKSGNDPQSLRDRRGK
The “soluble fraction (log2)” value of the first is higher: 0.16 for the first, -3.65 for the second.

First: HMPGRPSRISDAVKDQIDHDLRKNPRDLGYSQNLWDGKLLSHHLKERYQITLGIRQAQRLFHQLGFRQR
Second: HMPGVLEVDTGGVAAVAYVDGVEVGRVPGELQIAAGTKTLMLKADRYLDYVQSLEIDGLGKRQLLVATLQS
The “soluble fraction (log2)” value of the first is lower: -0.846 for the first, -0.0797 for the second.

First: HMPGVTTQLHRLNGTEETYIIKRGDGVLEIDGEKSELQLGDAIIIPAGASQKISNIGDEDLE
Second: HMPHFFISTSDVNQDIITVSDKENFHHIARVLRSKVGETLLLVDENRTQYKVVIQNIDSKSITTKVVETLK
The “soluble fraction (log2)” value of the first is higher: -0.159 for the first, -0.925 for the second.

“HMPHFGVVLQMDDWKTLRDRLEARDDIDWVMKPNLRFEGQPGEQATLFIRDPSGNALEFKGFADLSQVF” and “HMPHSTTDFSVSPDERQIVYSTNLQGRYDLWALDHNQGYPYPLTKKGQMSFFIKHLPGSQMILTGFD” are within 0.2 log units of each other in “soluble fraction (log2)” value: -0.116 for the first, -0.161 for the second.

“HMPIDQAKRKKEIIQNFGIRKIYKFSEIFDLKFGRDNIIVTFLIILDMIKEGVVEINENKEEIEFEYK” and “HMPIKYTHKGYTINVSRSKMNGTTFVKVVDPKGQVIQQSQDNRIQDVNQLVTTMKQYIDTLKPS” are within 0.2 log units of each other in “soluble fraction (log2)” value: -0.152 for the first, -0.274 for the second.

Compared with “HMPILRDEVYLSIKEAILTGELAPGERISIGRLLPQIGFSPTPIREALLKLEQEGFVSRLQRGGFIVSR”, “HMPIQLLSEKYMDEHWDELDKDEVSLYQNMSIRFLLKHEDDINWKLYSTNPFISIDTIDFFKDKISWVNI” is lower in “soluble fraction (log2)” value: -1.91 for the first, -2.34 for the second.

First: HMPKAKASARNDTRTRLLTIGTEVLSQKGFASTGVEEILSVAGVPKGAFYYYFESKAAFGLAVIENYE
Second: HMPKAMAIMSEIAGTVHIDDTKKSRHVEVTGVDDNGAPVTKSYLIPFGHRLKVMEGDVLVKGALLT
The “soluble fraction (log2)” value of the first is higher: 0.259 for the first, -0.0702 for the second.

First: HMPKHHIESVIPENFAGERLDKVLAVLWGTFSRAQLTRWIRDGSLLLDGHKVKPNTKVDGSEKIVLQAEVA
Second: HMPKNEHETKAIGNQTGGRVFLFLNTDNINRDYNMYISKQVKFVREISQEYYGKVAVFEDLYGNLWDLIE
The “soluble fraction (log2)” value of the first is lower: -1.27 for the first, 0.0316 for the second.

Compared with “HMPKNRTDYVQDVLKSLGRPAHYKEITQIINAMLPKEAQYSAKSIQVVLGSSPLFIRVGTGTYALVE”, “HMPKNVEVPNVVGLSLPMAKLRLTQLGLHIVVRDSVWSETGQPNTILDQDPQPGKKIKPESTVYVKVN” is higher in “soluble fraction (log2)” value: -1.73 for the first, -1.48 for the second.

Compared with “HMPKRYAGPDIIAIYGSDVFFRVGSGDGLMVIPVGRSMDNIEVVSVDAPRSVELMWKDGGPFTVPV”, “HMPKSKTPDDAAEEFRTAFSALDMDGKVTVKDMAEYMGVIDKTVYARLKKMGDEFTLDKGVITKKT” is lower in “soluble fraction (log2)” value: 0.145 for the first, -0.104 for the second.

Going from “HMPKTATIVIDLNYADAKEIVENLQTILAGETKDISVAPHPSANQIIASGDRWEVENISTIIKQLDR” to “HMPKTLTEAAYEDIKQWILEGEITPGSKISLEDTASRLEVSMTPIREALTKLQQEGLVEYIPRAGWRASK”, the “soluble fraction (log2)” value falls from 0.26 to -0.0907.

Going from “HMPLAQRFGLTVAQARVLDLLAEGRSNRQIGELLGLTEGTVKIHVSAIMKAMGVSNRAEAALMANRKR” to “HMPLDKDTTLDEIYRRFNMEHPADYKGHSLSMGDIVVFRQDGKQTAYYVDEGADYRQVPEFFVK”, the “soluble fraction (log2)” value rises from -1.7 to -0.0344.

“HMPLDPFVVDALRDEIINTIKQHEPRVDLQKVQVQPIYTQNRVNISVQYKIVGLPIVEDITFVLQRP” and “HMPLEKGVVILDVTPSSAKVAVDGTSVETTYPLRLSAGLHQLSAEADGYDSITEYFKVETEKTTVTLDLSK” are within 0.2 log units of each other in “soluble fraction (log2)” value: 0.39 for the first, 0.236 for the second.

Compared with “HMPLEQAELRLDLKQAILQMDRQTQELLLLRYVDGLSPGEAGKVLELSRFAVYRREKEALRKLRDYFSH”, “HMPLLSEWDAALEELWAKLGDVPMDPETERMDAPFLGFPAGTPREDIWHWFDERHSKGVAHLLYG” is lower in “soluble fraction (log2)” value: -1.93 for the first, -2.46 for the second.

First: HMPLQYRLTVQPTPTNARVRLVNSAFTYRPGVALPPGSYIVEVSSSGYGAKRQAVQIADGDVTVPVELEKI
Second: HMPLYKYYTSYQIEPGDTLTSIAQKYTINSDVSVQDYIDEVKKNNNLVSDKINSGSYLVVSYYSNEY
The “soluble fraction (log2)” value of the first is higher: -0.582 for the first, -1.36 for the second.

Going from “HMPNIQLARNLKYLRLAYGLTQDDLGAFLNISRQAYSNYENLKRSPDLDSLIRLASLYHLSLDDLVSR” to “HMPNTLAGIERYLGSGMVKGIGPVYASRLVSAFGTAVFDVIEQTPERLREIDGIGEKRTRKITSGWADQ”, the “soluble fraction (log2)” value rises from -3.31 to -0.213.

First: HMPNYIDAISALLTLKGVGDRKHASTMANILNLQYNSAKQKLDGKRGITLDEVKKVFQYFNEPF
Second: HMPPAPGHDLTEREREVLRLLVEGLSNQEISDRLVISQSTVKNHVSSVLSKLDAANRAEAVALALKNQL
The “soluble fraction (log2)” value of the first is lower: -1.44 for the first, 0.0595 for the second.

Going from “HMPPELSDEVMEEAMSYLKNQYLNHGVKLEDYPALNKLFVDEAFRSEVIRKTQSNYKISYQSAMASLD” to “HMPPENVSVRREQIAEDKKTVYNVWVTKGNKTVLYSKVVYAWGGVYFFRDLNTSISENMYKQADAGLVN”, the “soluble fraction (log2)” value falls from 0.355 to 0.00373.

“HMPPGQIVNEALQRAGNSTPTGTAISAQDDIKLYTSALAELATQGDTSSASVAKLREALQTAQVAFYNAV” and “HMPPITIVPNDNGVPIIRSQTPEISTAVNVELKAAGINTHTIDGTSIRVPKAQAQVAQQIVSRVNTRFT” are within 0.2 log units of each other in “soluble fraction (log2)” value: 0.201 for the first, 0.151 for the second.

Going from “HMPPNHADLKSSGLKATLPRLKILEIFQNSQVRHLSAEDVYKLLLAENLDVGLATVYRVLTQFEQAGL” to “HMPPNRDDEHLQALRDYYAANRRIPSLQRVASLLGFSSRSAAVKLMGRLADEGFIERTADDDAWITGKRFF”, the “soluble fraction (log2)” value falls from -0.522 to -1.34.

Compared with “HMPPNVLSEREQEVLQLAADGMSNKEMGSELYIAPTTVRDHMQSIMRKLQVNSRTAAAVAGLKLGLLD”, “HMPPPTLVESAYNHLKADIISSYLKPDEKINLKDLSQRYQVSETPIKQALNRLISEGLIISVPRKGMWVH” is higher in “soluble fraction (log2)” value: -0.452 for the first, 0.0697 for the second.

First: HMPPPVERAIRKLGHDLSLARRRRRISQDSMAQRMGASVSTVRRIEKGDPRIPIHFIARAMMILGDLKAL
Second: HMPQFDRQAFGQRLRLLRDYREMTQQQVANFLNVDRSTYSYYENGKTEPSITVLMRMAELFSVTLDSLLNM
The “soluble fraction (log2)” value of the first is higher: 0.0447 for the first, -3.92 for the second.

“HMPQIDLYPFEVRIEQDNNAAEYAVRFLDVPNIIGSGASIDEAIVEARGNLKEYLDYLIDTNRDIPLPS” and “HMPQISQDDLMEAGLIVGKEAKQRRIKLGEILGIGYVNAKQLPKRLQLFQVAKSDFEQAVQQIDG” are within 0.2 log units of each other in “soluble fraction (log2)” value: -0.339 for the first, -0.218 for the second.

“HMPQKSDLTMEEYNKLGLAGGSGSRKLREQVGIRLSVGYGNSKQFYNRLHTFGISLDELKTAVEEVKNG” and “HMPQNVSVPDVTNMTQAEAESKLKEKNLAVGNIIPELSTTVEKDKVTRTNPESGSNVRKNSKVDIYVSQG” are within 0.2 log units of each other in “soluble fraction (log2)” value: 0.226 for the first, 0.154 for the second.

“HMPQPDVIEVRQGIVTGMRPDRRTGWLRDEEDAAGEPKSFSIDVITPKGRTPGKGAVVTYTLTNGKITEVK” and “HMPRELKVRDVSHQHAGHAGWREGGETHFEVDMKADVFAGTSRVAAHRMVNKVLANELASRVHALQLNLS” are within 0.2 log units of each other in “soluble fraction (log2)” value: -0.047 for the first, 0.0164 for the second.

Going from “HMPRENLAYTLIMDGIVQHKNLPRASVTEAWLKQELQKAGINDFRQVLIAGIDSKGQLYFQPKQK” to “HMPRPLVAPMPGLIVRVTAVVGDSVDAGQGLVVMEAMKMENELRTTTAGVVKTVHVQPGVAVEKGALLIEF”, the “soluble fraction (log2)” value falls from ≥ 1.04 to -0.827.

Going from “HMPRTEILMVDEEMEGERLDAFVAEQLDELSRSLVKTLIENGEIRVDGKQQKPSYRLKAGEEIIVEIPA” to “HMPSDTNLIGKTGIAYTTLRPGGTALIDDRKVDVVADSEYIEKDKKIKVIRVEGIKVVVTAVK”, the “soluble fraction (log2)” value falls from 0.439 to 0.164.

“HMPSGRIRWFDAKKGYGFIAGDDGKDVFLPQTALPQGVRNPRKGAKVEYSVIEGNRGQVAMGVTMV” and “HMPSHALFWTLLKEVPGYDPHYKDVIKEGIVHEHSGGRTTSLSEMYTKYPREYSLMIEAMKG” are within 0.2 log units of each other in “soluble fraction (log2)” value: -0.331 for the first, -0.475 for the second.

Going from “HMPSKTFYNLSQEKQQKIIDASEKEFSNNLYQDVSLNQIIKNSNISRGSFYMYFTDKEDLYFYLLNEY” to “HMPSLGADIRALRKSRKMTLVALADALGRSVGWLSQVERDKSHATIADLGRMAEVLDVSISSFL”, the “soluble fraction (log2)” value rises from -0.731 to -0.273.

Going from “HMPSLSAILHDARVAAGLSMRQASAASGLSIGFISMLEQGKVQDISLQRLGRLVTAYDLEPLDVIEAAG” to “HMPSSAYGPYKNVFLSNSELTKLKNELPTSWEHYINRLSEYMRSTGRQYQSHAATILRWAATDRNS”, the “soluble fraction (log2)” value rises from -1.83 to -0.488.

With “HMPSSFLVKVTADALNIRSGPGVANRITGTIKDKGTYTIVDTKDDWGKLKSGVGWIHLGYTKRLD” the “soluble fraction (log2)” value was -0.857.
